Kd data for five molecules are collected here from publication PMC8583712, “p53 Transactivation Domain Mediates Binding and Phase Separation with Poly-PR/GR” (International Journal of Molecular Sciences, 2021).

Where no end group is shown, it is not given here. The star is where a group is joined. FITC = O=C1OC2(c3ccc(O)cc3Oc3cc(O)ccc32)c2ccc(NC(=S)*)cc21

B2: N-terminally fluorescein isothiocyanate (FITC)-labelled PR25 (peptide)
peptide: {FITC}-PRPRPRPRPRPRPRPRPRPRPRPRPRPRPRPRPRPRPRPRPRPRPRPRPR
notes: C9orf72 repeat-derived dipeptide repeat; also called FITC-labeled PR25; FITC-PR25; source: synthetic peptide (Peptide Specialty Laboratories GmbH, HPLC-purified)
B3: N-terminally fluorescein isothiocyanate (FITC)-labelled GR25 (peptide)
peptide: {FITC}-GRGRGRGRGRGRGRGRGRGRGRGRGRGRGRGRGRGRGRGRGRGRGRGRGR
notes: C9orf72 repeat-derived dipeptide repeat; also called FITC-labeled GR25; FITC-GR25; source: synthetic peptide (Peptide Specialty Laboratories GmbH, HPLC-purified)

One test addresses T1, p53^TAD2 (Homo sapiens, UniProt P04637).
T1 construct: amino acids 37 to 57 (p53 ^TAD2); ZZ-His6 (cleaved yes); made in house; host or cells: E. coli BL21-DE3 Star
As to the kind of experiment: Fluorescence polarization, FITC-labeled PR25/GR25 with p53^TAD2. The test is classed as binding. To be noted: 100 nM FITC-labelled (N-terminal) peptide, 20 mM Hepes pH 7.0, 50 mM NaCl, 2 mM TCEP, 0.04% NaN3, room temperature, 35 µL, λex 495/λem 530 nm; 1:1 complex; mean of three experiments, errors = SD of the fit; read-out: equilibrium dissociation constant (Kd), p53^TAD2. An excerpt:
Measurements were taken at room temperature in black 384-well plates using a ClarioStar Plus (BMG labtech, Ortenberg, Germany) spectrophotometer. Filters were selected as a function of FITC optical characteristics (λex= 495 nm, and λem= 530 nm). […] The polarization data were fitted using graphpad prism 8 with the following equation:(3) P=P0+Pmax×L/L + Kd
Here, P0 represents the polarization of FITC-labelled peptides in absence of p53^1−94 and p53^TAD2, and Pmax to the highest polarization of the binding curve corresponding to the saturation of the interaction. L corresponds to the concentration of p53^1–94 and p53^TAD2 proteins, and Kd is the dissociation constant.

Test [1] has as its target B2. Kind of test: fluorescence polarisation; 100 nM FITC-labelled PR25/GR25 with increasing concentrations of p53 1-94 or p53 TAD2; room temperature; 20 mM Hepes pH 7.0, 50 mM NaCl, 2 mM TCEP, 0.04% NaN3; fit assuming a 1:1 complex. To be noted: both partners purified.
The target of test [2] is B3. The test is described as above. Particulars: both partners purified.
The target of test [3] is T2, p53^1-94 (human p53 residues 1 to 94: transactivation domains 1 and 2 and poly-proline region) (human, UniProt P04637 1-94).
T2 construct: human p53, amino acids 1 to 94; 15N- or 13C,15N-labelled for NMR, unlabelled for fluorescence polarisation; also called N-terminal disordered region; source: E. coli BL21-DE3 Star, purified (lysis in 6 M urea, Ni-NTA, TEV cleavage, second Ni-NTA, SEC on Superdex 75 Increase)
T2 sequence (P04637 1-94): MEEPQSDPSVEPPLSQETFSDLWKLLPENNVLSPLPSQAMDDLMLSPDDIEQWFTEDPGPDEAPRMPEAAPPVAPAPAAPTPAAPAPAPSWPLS
Described as above. To be noted: both partners purified.

On to `N=C(N)NCCC[C@H](NC(=O)CNC(=O)[C@H](CCCNC(=N)N)NC(=O)CNC(=O)[C@H](CCCNC(=N)N)NC(=O)CNC(=O)[C@H](CCCNC(=N)N)NC(=O)CNC(=O)[C@H](CCCNC(=N)N)NC(=O)CNC(=O)[C@H](CCCNC(=N)N)NC(=O)CNC(=O)[C@H](CCCNC(=N)N)NC(=O)CNC(=O)[C@H](CCCNC(=N)N)NC(=O)CNC(=O)[C@H](CCCNC(=N)N)NC(=O)CNC(=O)[C@H](CCCNC(=N)N)NC(=O)CNC(=O)[C@H](CCCNC(=N)N)NC(=O)CNC(=O)[C@H](CCCNC(=N)N)NC(=O)CNC(=O)[C@H](CCCNC(=N)N)NC(=O)CNC(=O)[C@H](CCCNC(=N)N)NC(=O)CNC(=O)[C@H](CCCNC(=N)N)NC(=O)CNC(=O)[C@H](CCCNC(=N)N)NC(=O)CNC(=O)[C@H](CCCNC(=N)N)NC(=O)CNC(=O)[C@H](CCCNC(=N)N)NC(=O)CNC(=O)[C@H](CCCNC(=N)N)NC(=O)CNC(=O)[C@H](CCCNC(=N)N)NC(=O)CNC(=O)[C@H](CCCNC(=N)N)NC(=O)CNC(=O)[C@H](CCCNC(=N)N)NC(=O)CNC(=O)[C@H](CCCNC(=N)N)NC(=O)CNC(=O)[C@H](CCCNC(=N)N)NC(=O)CNC(=O)[C@H](CCCNC(=N)N)NC(=O)CN)C(=O)O` [GR25], for which, at p53^TAD2, the Kd came to 2850 ± 510 nM.

For the molecule `N=C(N)NCCC[C@H](NC(=O)[C@@H]1CCCN1C(=O)[C@H](CCCNC(=N)N)NC(=O)[C@@H]1CCCN1C(=O)[C@H](CCCNC(=N)N)NC(=O)[C@@H]1CCCN1C(=O)[C@H](CCCNC(=N)N)NC(=O)[C@@H]1CCCN1C(=O)[C@H](CCCNC(=N)N)NC(=O)[C@@H]1CCCN1C(=O)[C@H](CCCNC(=N)N)NC(=O)[C@@H]1CCCN1C(=O)[C@H](CCCNC(=N)N)NC(=O)[C@@H]1CCCN1C(=O)[C@H](CCCNC(=N)N)NC(=O)[C@@H]1CCCN1C(=O)[C@H](CCCNC(=N)N)NC(=O)[C@@H]1CCCN1C(=O)[C@H](CCCNC(=N)N)NC(=O)[C@@H]1CCCN1C(=O)[C@H](CCCNC(=N)N)NC(=O)[C@@H]1CCCN1C(=O)[C@H](CCCNC(=N)N)NC(=O)[C@@H]1CCCN1C(=O)[C@H](CCCNC(=N)N)NC(=O)[C@@H]1CCCN1C(=O)[C@H](CCCNC(=N)N)NC(=O)[C@@H]1CCCN1C(=O)[C@H](CCCNC(=N)N)NC(=O)[C@@H]1CCCN1C(=O)[C@H](CCCNC(=N)N)NC(=O)[C@@H]1CCCN1C(=O)[C@H](CCCNC(=N)N)NC(=O)[C@@H]1CCCN1C(=O)[C@H](CCCNC(=N)N)NC(=O)[C@@H]1CCCN1C(=O)[C@H](CCCNC(=N)N)NC(=O)[C@@H]1CCCN1C(=O)[C@H](CCCNC(=N)N)NC(=O)[C@@H]1CCCN1C(=O)[C@H](CCCNC(=N)N)NC(=O)[C@@H]1CCCN1C(=O)[C@H](CCCNC(=N)N)NC(=O)[C@@H]1CCCN1C(=O)[C@H](CCCNC(=N)N)NC(=O)[C@@H]1CCCN1C(=O)[C@H](CCCNC(=N)N)NC(=O)[C@@H]1CCCN1C(=O)[C@H](CCCNC(=N)N)NC(=O)[C@@H]1CCCN1)C(=O)O` [PR25], on p53^TAD2, the Kd is 3640 ± 1160 nM.

B1: p53^TAD2 (human p53 transactivation domain 2, amino acids 37 to 57) (domain or fragment, UniProt P04637 37-57, looked up)
chain: SQAMDDLMLSPDDIEQWFTED
notes: human p53, amino acids 37 to 57 (TAD2 construct); 15N-labelled for NMR, unlabelled for fluorescence polarisation; source: E. coli BL21-DE3 Star, purified (lysis in 6 M urea, Ni-NTA, TEV cleavage, second Ni-NTA, SEC on Superdex Peptide)
Regarding B1, the values for the Kd in test [1] and in test [2] were 3640 nM and 2850 nM, respectively. B2 yielded a Kd in test [3] of 1840 nM. B3: the Kd in test [3] was 430 nM.
